# Experimental data from the nanobody polyreactivity screen of Harvey et al. (2022).
# Experiment: yeast display, Sf9 membrane polyspecificity reagent, FACS + sequencing; frameworks hold sequencing errors
# Method in brief: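 A synthetic nanobody library was expressed on Saccharomyces cerevisiae BJ5465 by galactose induction for 36–48 hours. The library was stained for 1 hour at 4 °C with 10% biotinylated, detergent-solubilized Sf9 membrane reagent and enriched with streptavidin microbeads before FACS. Low and high (top ~1%) gates were set on anti-HA fluorescence for expression and streptavidin fluorescence for reagent binding, and each polyreactivity label reflects the gate of origin.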
row,Sequence,polyreactivity (PSR sort gate)
1,QVQLVESGGGLVQAGGSLRLSCAASGLTFTAYAMGWYRQAPGKERELVAAISVRGGRTYYADSVKGRFTISRDNAKNTVYLQMNSLKPEDTAVYYCNAVRFISARYDYWGQGTQVTVSS,high polyreactivity
2,QVQLVESGGGLVQAGGILRLSCAACGITVTSYAMGWYRQAPGKERELVAVITGTGGITYYADSVKGRFTISRDNAKNTVYLQMNSLKPEDTAVYYCAAELELREYDYWGQGNQVTVSS,high polyreactivity
3,QVQLVESGAGLVQAGGSLRLSCAASGRTFGTNTKGWYRPAPGKEREFVATITSSGGSTYYADSVKGRFTISRDNAKNTVYLQMNSLKPEDTAVYYCATDPYGGKTQYPSLRYDYWGQGTQVTVSS,low polyreactivity
4,QVQLVESWGGLVQAGGSLRLSCAASGRTFAYYAMRWYRQAPGKERELVAAISSGGRTNYADSVKGRFTISRDNAKNTVYLQMNSLKPEDTAVYYCARKASYQIYNGQYGGFGYGYWGQGTQVTVSS,high polyreactivity
5,QVQLVESGGGLVQAGGSLRLSCAASGSTFKWNAMGWYRQAPGKERELVAAISKGSVNTYYADSVKGRFTISRDNAKNTVYLQMNSLKPEDTAVYYCAADRRYPALDYRGQGTQVTVSS,high polyreactivity
6,QVQLVESGGGLVPAGGSLRLSCAASGGTFYTYVMGWSSQAPGKERELGAAIAGSGNTYYADSVKGRFTISRDKAKKTVYLQMNSLKPEDTAVYYCAKVLRMYPSGSWYGYWGQGTQVTVSS,high polyreactivity
7,QVQLVESGGGLVQAGGSLRLSCAASGSIFYSYAMGWYRQAPGKERELVAAISYSSGSTYYADSVKGRFTISRDNAKNTVYLQMNSLKPEDTAVYYCAAEGNGWQVDVTEVGEYDSWGQGTQVTVSS,high polyreactivity
8,QLQLVESGGGLVQAGGSLLLSCAASGITFPANAMGWYRQAPGKERELVAAITGRGGRTYYADSVKGRFTISRYYAKNTVYLQMISLKPEDTAVYYCNAYLWRVTQNYDYWGQGTQVTVSS,high polyreactivity
9,QVQLVESGGGLVQAGGSLRLSCAASGRIFRRNAIGWYRQAPGKERELEAAISSGCGSKYYADSVKGRFTISRDNAKNTVYLQMNSLKPEDTAVYYCNTVFYYDDVSQAHDYWGQGTQVTVSS,high polyreactivity
10,QVQLLESGGGLVQAGGSLRLSCAASGFTFLQYAMGWYRQAPGKERELVAAISWSGSRTYYADSVKGRFTISRDNAKNTVYLQMNSLKPEETAVYYCAAVYGGLTLTRNYYWGQGTQVTVSS,high polyreactivity
11,QVQLVESVGGLVQAGGSLRLSCAASGFIFSWYAMGWYRQAPGKERELVAAINSGGRTSYADSVKGRFTISRDNAKNTVYLQMNSLKPEDTAVYYCAAPVYYYNRARYSYDYWGQGTQVTVSS,high polyreactivity
12,QVQLVESGGGLVQAGGSLRLSCAASGRIFYAYAMGWYRQAPGKERELVAAITARGGSTYYADSVKGRFTISRDNAKTTVYLQMNSLKPEDTAVYYCAKDTLLETGYEYWGQGTQVTVSS,high polyreactivity
13,QVQLVESGGGLVQAGGSLRLSCAASGIIFGFYAMGWYRQAPGKERELVAAITSGGRTDYADSVKGRFTISRDNAKNTVYLQMNSLKPEDTAVYYCAAEFTYYGARWGYLGDLDYWGQGTQVTVSS,high polyreactivity
14,QVQLVESGGGLVQAGGSVRLSFAASGSSIFGNFMGWYRQAPGKERELVAGITNRGGSTYFADSVKGRFTISRDNAKITVYLQMNSLKPEDTAVYYCAARKNHSGYGRGNYWGQGTQVTVSS,high polyreactivity
15,QVQLVESGGGLVQAGGSLRLSCAASGRIFPEYAMGWYRQAPGKERELVAAITSSGRTYYADSVKGRFTISRDNAKNTVYLQMNSLKPEDTAVYYCAASFRRYYRWDYGFWGQGTQVTVSS,high polyreactivity
16,QVQLVESGGGLVQAGGSLRLSCAASGFTFYGNAMGWYSQAPGKERELVAAISSGGSTNYADSVKGRFTISRDNAQNTVSLQMNSLKPEDTAVYYCAASSPRQVSFPYASIGFDYWGQGTQVTVSS,low polyreactivity
17,QVQLQESGGGLVQAGGTLRLSCAANGNISYSNPMGWYRQPPGKEREFVASINPGSTTNYMDSVKGRFTISRDNAKNTVYLQMNSLKPEDTAVYYCNSVFFKSRQGQMYYWGQGSQVTVSS,high polyreactivity
